Experimental data from patent publication US20250368729A1.
Values belong to the substance of their own block, whether it stands above or below them.

What was measured:
[1] = target: KEN hATTR amyloid extract (human) (UniProt P02766); test: EuLISA, substrate coated on plate
[2] = target: synthetic amyloid-like fibrils of recombinant amyloidogenic λ6 variable domain protein (rVλ6Wil); test: EuLISA, substrate coated on plate
[3] = target: Per125 wtATTR amyloid extract (human) (UniProt P02766); test: EuLISA, substrate coated on plate
[4] = target: SHI ALλ liver amyloid extract; test: EuLISA, substrate coated on plate
[5] = target: TAL ALκ liver amyloid extract; test: EuLISA, substrate coated on plate
[6] = target: KEN hATTR amyloid extract (human) (UniProt P02766); test: pulldown, labelled antibody
[7] = target: SNO hereditary (h) ATTR amyloid extract (human) (UniProt P02766); test: pulldown, labelled antibody
[8] = target: Aβ(1-40) amyloid-like fibrils (UniProt P05067); test: pulldown of 125I-labelled antibody with the substrate pellet
hIAPP fibril = hIAPP fibril (UniProt P10997); test: as above
Chain of hIAPP fibril (P10997 34-70 limits assumed): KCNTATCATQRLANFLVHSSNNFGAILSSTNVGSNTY

Chain of Aβ(1-40) amyloid-like fibrils (P05067 672-711 limits assumed): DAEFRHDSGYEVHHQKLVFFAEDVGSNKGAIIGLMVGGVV

LogEC50 [1]: -1.36
Max (maximal level of binding) [1]: 19700
Substance: chimeric (c) 11-1F4 (antibody)

LogEC50 [1]: 9.06 -log(M)
Max (maximal level of binding) [1]: -0.8
EC50 [2]: 1280 nM
LogEC50 [2]: 5.89 -log(M)
Max (maximal level of binding) [2]: 39.3
LogEC50 [3]: 7.92 -log(M)
Max (maximal level of binding) [3]: 8.38
LogEC50 [4]: 7.88 -log(M)
Max (maximal level of binding) [4]: 2.5
LogEC50 [5]: 3 -log(M)
Max (maximal level of binding) [5]: 2220
Substance: hIgG1 control (antibody)

percent bound [6]: 15%
percent bound [7]: 12%
EC50 [1]: 3.56 nM
LogEC50 [1]: 8.45 -log(M)
Max (maximal level of binding) [1]: 19.9
Substance: murine Ig-peptide fusion Igp5 (murine 11-1F4 with peptide p5 fused to the N-terminus of the light chain) (antibody)

bound to substrate (pulldown) [8]: 4.6%
bound to substrate (pulldown) (hIAPP fibril): 5.1%
LogEC50 [1]: 2.39
Max (maximal level of binding) [1]: 294000
Substance: murine antibody m11-1F4
